Data: patent US20210324080A1 (JIANGSU HUAIYU PHARMACEUTICAL, published 2021)

How the values were obtained:
[1] = biological target: T1, CTLA-4-hFc (immunogen A; hFc-labeled CTLA-4 extracellular domain protein) (human, UniProt P16410 36-161); assay: receptor-ligand blocking assay: CTLA-4 protein, antibody titrated, blocked ligand B7.1, inhibition (%)
T1 construct: range 36-161; Made in HEK293 cells, purified on protein A; also called CLTA-4-hFc; CTLA-4 protein; not shown: human IgG Fc fragment (hFc) of the pCpC vector
T1 sequence (looked up): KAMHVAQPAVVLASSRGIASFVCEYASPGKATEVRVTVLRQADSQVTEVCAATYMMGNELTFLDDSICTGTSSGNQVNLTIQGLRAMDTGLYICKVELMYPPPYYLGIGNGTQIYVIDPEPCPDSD
Procedure: (§1) CTLA-4 extracellular domain protein (CTLA-4-hFc) was diluted with PBS to a final concentration of 1.0 μg/mL, and then added to a 96-well ELISA plate as 100 μl per well. The plate was covered with a plastic film and incubated overnight at 4° C. The plate was washed twice with plate washing solution [PBS containing 0.01% (v/v) Tween 20] on the next day, and added with blocking solution [PBS containing 0.01% (v/v) Tween 20 and 1% (w/w) BSA] and blocked at room temperature for 2 hours. […] After 2 hours, the plate was washed 3 times with a plate washing solution [PBS containing 0.01% (v/v) Tween 20]. HRP (horseradish peroxidase) labeled avidin diluent (purchased from Sigma) was added 100 microliters per well, and after the plate was incubated for 2 hours at 37° C., it was washed with plate washing solution [PBS containing 0.01% (v/v) Tween 20] for 3 times. […] TMB substrate was added to each well. After incubated at room temperature for 30 minutes, the plate was added with […] stop solution (1.0N HCl) to each well. An ELISA plate reader (SpectraMax 384plus, Molecular Device) was used to read the A450 nm value.

[2] = biological target: T1, CTLA-4-hFc (immunogen A; hFc-labeled …); assay: blocking assay, CTLA-4 protein, competitor B7.1
Procedure: as §1

[3] = biological target: T2, recombinant His-labeled hCTLA-4 ECD protein (human, UniProt P16410 36-161); assay: SPR Biacore T200, antibody captured by anti-human Fc, 1:1 model
T2 construct: extracellular domain; also called human CTLA-4 ECD; not shown: His label
T2 sequence (looked up): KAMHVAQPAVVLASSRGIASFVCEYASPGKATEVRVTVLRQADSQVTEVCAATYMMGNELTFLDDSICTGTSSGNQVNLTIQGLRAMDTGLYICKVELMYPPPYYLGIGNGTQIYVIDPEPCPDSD
Procedure: Anti-human Fc IgG was fixed on flow cell 1 and 2. HBS-EP+ (10 mmol/L HEPES, 150 mmol/L NaCl, 3 mM EDTA, 0.05% P20, pH 7.4) was used as the running buffer, and anti-human Fc IgG was fixed using the fixing wizard template. The flow cells 1 and 2 connected in series with S CM5 sensor chip were activated with freshly mixed 50 mmol/L NHS and 200 mmol/L EDC. Anti-human Fc IgG was diluted to […] with 10 mmol/L NaAC (pH 4.5) and injected into activated flow cells 1 and 2. The remaining active coupling sites were blocked with 1 mol/L ethanolamine.
The recombinant His-labeled hCTLA-4 ECD protein was diluted to 50 nmol/L, and then serially diluted 4 times with HBS-EP+ buffer at a 2-fold ratio. […] Each antibody was injected into the CM5 sensor flow cell 2 at a flow rate of 10 μL/min to achieve a response of 230 RU. Then the prepared His-labeled hCTLA-4ECD protein was injected into flow cells 1 and 2 at a flow rate of 30 μL/min for 180 seconds. The buffer flow was maintained for 400 seconds for dissociation measurement (30 μL/min). To remove the tested antibody from the surface, 10 mmol/L glycine-HCl pH1.5 was injected for 20 seconds (30 μL/min). Flow cell 1 was used as a reference flow cell. The above steps were repeated for each concentration of serially diluted His-labeled CTLA-4ECD protein. The KD value of each antibody was evaluated using Biacore T200 evaluation software 1.0, and a 1:1 binding model was used to fit the data.

[4] = biological target: T3, CTLA-4 on human T lymphocytes (PBMC, CD3+ T cells) (human, UniProt P16410 36-223); assay: cell-based or functional assay
T3 sequence (looked up): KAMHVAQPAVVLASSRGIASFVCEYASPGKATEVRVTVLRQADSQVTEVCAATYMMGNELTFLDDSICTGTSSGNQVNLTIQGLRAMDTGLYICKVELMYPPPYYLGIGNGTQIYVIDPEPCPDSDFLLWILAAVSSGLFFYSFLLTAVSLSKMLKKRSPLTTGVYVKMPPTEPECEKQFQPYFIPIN

[5] = biological target: T4, human CTLA-4 (Y201V), full length, on transfected cells (human, UniProt P16410 36-223); assay: FACS, human CTLA-4 expressing cells
T4 construct: whole, on cells; also called hCTLA-4; HEK293-hCTLA-4 (Y201V)
T4 sequence (looked up): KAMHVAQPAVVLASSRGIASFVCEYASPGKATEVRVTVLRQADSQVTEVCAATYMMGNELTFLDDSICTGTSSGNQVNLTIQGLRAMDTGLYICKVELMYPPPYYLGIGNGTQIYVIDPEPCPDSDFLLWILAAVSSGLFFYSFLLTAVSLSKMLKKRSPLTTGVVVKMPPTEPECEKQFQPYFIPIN

[6] = biological target: T1, CTLA-4-hFc (immunogen A; hFc-labeled …); assay: blocking assay, CTLA-4 protein, competitor B7.2
Procedure: as §1

Binder | % Block at 0.000128 nM [2] [%] | % Block at 0.0128 nM [2] [%] | % Block at 0.064 nM [2] [%] | % Block at 0.32 nM [2] [%] | % Block at 1.6 nM [2] [%] | % Block at 8 nM [2] [%] | % Block at 40 nM [2] [%] | % Block at 200 nM [2] [%] | Kd [3] [nM] | koff [3] [s⁻¹] | kon [3] [M⁻¹ s⁻¹] | IL-2 secretion, pg/ml, at 0.13 ug/ml, N = 1 [4] [pg/mL] | IL-2 secretion, pg/ml, at 0.13 ug/ml, N = 2 [4] [pg/mL] | IL-2 secretion, pg/ml, at 0.37 ug/ml, N = 1 [4] [pg/mL] | IL-2 secretion, pg/ml, at 0.37 ug/ml, N = 2 [4] [pg/mL] | IL-2 secretion, pg/ml, at 1.1 ug/ml, N = 1 [4] [pg/mL] | IL-2 secretion, pg/ml, at 1.1 ug/ml, N = 2 [4] [pg/mL] | IL-2 secretion, pg/ml, at 3.3 ug/ml, N = 1 [4] [pg/mL] | IL-2 secretion, pg/ml, at 3.3 ug/ml, N = 2 [4] [pg/mL] | IL-2 secretion, pg/ml, at 10 ug/ml, N = 1 [4] [pg/mL] | further results
40C4C6 fully human CTLA-4 antibody (human IgG1, kappa) (antibody, V domains shown, also called mAb09; mAb009) VH: QVQLVESGGGVVQPGRSLRLSCAASGFTFSSYGMHWVRQAPGKGLEWVAVIWYDGRNKYYADSVKGRFTISRDNSKNTLYLQMNSLRAEDTAVYYCARASGSYSYYFDYWGQGTLVTVSS VL: DIQMTQSPSSLSASVGGRVTITCRASQSISSFLNWYQHELGKAPKLLIYGASSLQSGVPSRFSGSGSGTDFTLTISSLQPEDFATYYCQQTYSTPFTFGPGTKVDIK | 0 | 9.3 | 35 | 82.1 | 98.1 | 99.2 | 99.4 | 99.4 | 2.36 | 0.0017 | 720000 | 2140 | 1830 | 2370 | 2160 | 3200 | 3010 | 3770 | 3620 | 5270 | IC50 (read off the curve) [1]: ~1 nM; IL-2 secretion, pg/ml, at 10 ug/ml, N = 2 [4]: 4810 pg/mL; IL-2 secretion, pg/ml, at 30 ug/ml, N = 1 [4]: 6840 pg/mL; IL-2 secretion, pg/ml, at 30 ug/ml, N = 2 [4]: 7410 pg/mL; MFI at 0.000128 nM [5]: 3; MFI at 0.0128 nM [5]: 24; MFI at 0.064 nM [5]: 74; MFI at 0.32 nM [5]: 233; MFI at 1.6 nM [5]: 553; MFI at 8 nM [5]: 795; MFI at 40 nM [5]: 967; MFI at 200 nM [5]: 963; % Block at 0.000128 nM [6]: 0%; % Block at 0.0128 nM [6]: 30%; % Block at 0.064 nM [6]: 52.4%; % Block at 0.32 nM [6]: 89.2%; % Block at 1.6 nM [6]: 99.1%; % Block at 8 nM [6]: 99.1%; % Block at 40 nM [6]: 99.1%; % Block at 200 nM [6]: 99.1%
97A8D1 fully human CTLA-4 antibody (human IgG1, kappa) (antibody, V domains shown, also called mAb49; mAb049) VH: QVQLVESGGGVVQPGRSLRLSCVASGFTFNNYGMNWVRQAPGKGLEWVAVIWYGGRNKFYADSVKGRFTISRDNSKNTLYLEMNSLRAEDTAVYYCARADWGGWFDPWGQGTLVTVSS VL: EIVLTQSPGTLSLSPGERATLSCRASQSVSSTYLAWYQQKPGQAPRLLIHGAFSRATGIPDRFSGSGSGPDFTLTISRLEPEDFAVYYCQQYGTSPFTFGPGTKVDIK | 0 | 6.1 | 28.7 | 67.8 | 90.6 | 95.2 | 97.2 | 98.4 | 2.15 | 0.00087 | 405000 | 1520 | 1500 | 2110 | 1960 | 2660 | 2610 | 4660 | 3330 | 5080 | IL-2 secretion, pg/ml, at 10 ug/ml, N = 2 [4]: 5560 pg/mL; IL-2 secretion, pg/ml, at 30 ug/ml, N = 1 [4]: 6090 pg/mL; IL-2 secretion, pg/ml, at 30 ug/ml, N = 2 [4]: 7540 pg/mL; MFI at 0.000128 nM [5]: 3; MFI at 0.0128 nM [5]: 22; MFI at 0.064 nM [5]: 66; MFI at 0.32 nM [5]: 196; MFI at 1.6 nM [5]: 580; MFI at 8 nM [5]: 919; MFI at 40 nM [5]: 1020; MFI at 200 nM [5]: 1020; % Block at 0.000128 nM [6]: 0%; % Block at 0.0128 nM [6]: 33%; % Block at 0.064 nM [6]: 48.4%; % Block at 0.32 nM [6]: 84.1%; % Block at 1.6 nM [6]: 99%; % Block at 8 nM [6]: 99.2%; % Block at 40 nM [6]: 99.2%; % Block at 200 nM [6]: 99.2%
